{"source": "paper PMC9935396", "about": "“Structures of transcription preinitiation complex engaged with the +1 nucleosome” (Nature Structural & Molecular Biology, 2022)", "binders": {"B1": {"name": "Tfb5, subunit of TFIIH (natural protein, S. cerevisiae)", "chain": "MARARKGALVQCDPSIKALILQIDAKMSDIVLEELDDTHLLVNPSKVEFVKHELNRLLSKNIYNPMDEEENQ", "notes": "Tfb5, subunit of S. cerevisiae TFIIH; Stood in the assay as a subunit of TFIIH"}}, "biological_target": "T1, Tfb2 (p52), subunit of TFIIH (S. cerevisiae, UniProt Q02939 1-513)", "T1 construct": "Tfb2 (p52 in human), subunit of S. cerevisiae TFIIH; Stood in the assay as a subunit of TFIIH", "T1 sequence": "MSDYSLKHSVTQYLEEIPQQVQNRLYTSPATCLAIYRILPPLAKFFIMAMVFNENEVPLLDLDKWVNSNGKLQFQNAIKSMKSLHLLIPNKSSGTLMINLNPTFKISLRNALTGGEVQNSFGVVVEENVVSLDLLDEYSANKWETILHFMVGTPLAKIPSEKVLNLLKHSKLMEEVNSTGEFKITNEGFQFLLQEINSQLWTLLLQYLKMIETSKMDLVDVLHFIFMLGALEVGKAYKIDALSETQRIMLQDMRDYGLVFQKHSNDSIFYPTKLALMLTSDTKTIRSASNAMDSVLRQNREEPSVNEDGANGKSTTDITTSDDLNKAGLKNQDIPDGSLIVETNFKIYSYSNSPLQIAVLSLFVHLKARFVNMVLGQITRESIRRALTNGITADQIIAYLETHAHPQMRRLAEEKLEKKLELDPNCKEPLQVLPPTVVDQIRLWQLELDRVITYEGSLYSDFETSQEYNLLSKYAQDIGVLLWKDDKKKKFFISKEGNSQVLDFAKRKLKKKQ", "assay": "cryo-EM structure; PIC-nucleosome complex A, without NTPs; PIC assembled in vitro on nucleosomal 209 bp His4 promoter/Widom-601 scaffold, GraFix (15-40% sucrose, 0-0.1% glutaraldehyde); overall 3.3 Å", "conditions": "both partners purified", "data": [{"binder": "B1", "values": [{"measurement": "binding result", "result": "binds"}]}]}
